# Assay results reported in patent publication US20070218064A1 (published 2007).
# T1: recombinant human IL-23 (hrIL-23), produced at Centocor (human, UniProt P29460 23-328)
# T1 sequence 1: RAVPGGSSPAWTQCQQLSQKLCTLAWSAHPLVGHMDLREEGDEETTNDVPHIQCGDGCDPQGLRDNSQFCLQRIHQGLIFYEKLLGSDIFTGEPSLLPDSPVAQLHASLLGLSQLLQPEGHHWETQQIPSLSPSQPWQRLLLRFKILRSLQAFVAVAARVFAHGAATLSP
# T1 sequence 2: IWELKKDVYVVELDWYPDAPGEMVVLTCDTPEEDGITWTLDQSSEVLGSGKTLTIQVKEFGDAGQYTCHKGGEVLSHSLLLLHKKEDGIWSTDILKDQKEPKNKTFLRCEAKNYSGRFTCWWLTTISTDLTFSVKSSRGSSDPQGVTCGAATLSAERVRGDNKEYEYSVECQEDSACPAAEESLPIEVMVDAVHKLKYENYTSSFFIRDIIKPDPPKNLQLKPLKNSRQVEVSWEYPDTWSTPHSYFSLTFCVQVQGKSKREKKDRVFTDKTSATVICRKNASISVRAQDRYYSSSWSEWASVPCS
# T2: recombinant human IL-12 (hrIL-12), produced at Centocor (human, UniProt P29459 23-219; P29460 23-328)
# T2 construct: p35-p40 heterodimer; also called hIL-12; IL-12 CNTO
# T2 sequence (looked up) 1: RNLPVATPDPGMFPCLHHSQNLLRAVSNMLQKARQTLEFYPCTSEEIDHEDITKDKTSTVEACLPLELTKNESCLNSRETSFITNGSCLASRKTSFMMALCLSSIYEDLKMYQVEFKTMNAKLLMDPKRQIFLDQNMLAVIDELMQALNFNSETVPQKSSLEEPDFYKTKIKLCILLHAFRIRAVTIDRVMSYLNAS
# T2 sequence (looked up) 2: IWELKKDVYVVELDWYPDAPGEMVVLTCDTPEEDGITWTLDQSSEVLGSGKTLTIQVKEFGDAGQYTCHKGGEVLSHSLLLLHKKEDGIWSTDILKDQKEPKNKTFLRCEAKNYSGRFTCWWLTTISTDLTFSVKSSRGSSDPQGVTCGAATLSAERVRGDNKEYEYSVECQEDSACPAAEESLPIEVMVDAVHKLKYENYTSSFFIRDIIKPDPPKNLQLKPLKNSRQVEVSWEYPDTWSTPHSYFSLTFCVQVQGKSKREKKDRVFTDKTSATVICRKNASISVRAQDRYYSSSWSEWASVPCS
# T3: IL-12 (R&D) (UniProt P29459 23-219; P29460 23-328)
# T3 construct: bought from R&D Systems; also called R&D IL-12
# T3 sequence (looked up) 1: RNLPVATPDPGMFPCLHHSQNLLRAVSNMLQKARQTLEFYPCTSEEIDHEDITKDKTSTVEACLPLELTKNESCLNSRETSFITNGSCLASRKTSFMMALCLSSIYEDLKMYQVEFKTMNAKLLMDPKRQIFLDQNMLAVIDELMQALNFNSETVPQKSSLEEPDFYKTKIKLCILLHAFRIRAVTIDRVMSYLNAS
# T3 sequence (looked up) 2: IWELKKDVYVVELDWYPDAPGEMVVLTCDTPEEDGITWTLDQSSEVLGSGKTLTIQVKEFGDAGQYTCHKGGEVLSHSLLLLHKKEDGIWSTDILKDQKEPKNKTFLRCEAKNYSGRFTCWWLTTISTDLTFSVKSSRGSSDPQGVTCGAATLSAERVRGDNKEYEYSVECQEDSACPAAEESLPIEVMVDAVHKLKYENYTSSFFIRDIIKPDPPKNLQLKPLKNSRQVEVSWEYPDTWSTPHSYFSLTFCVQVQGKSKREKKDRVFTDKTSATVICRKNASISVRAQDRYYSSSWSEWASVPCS
# Legend:
# [1] = biological target: T1, recombinant human IL-23 (hrIL-23), …; test: cell-based or functional assay
# [2] = biological target: T2, recombinant human IL-12 (hrIL-12), …; test: ELISA, antigen in solution to immobilized Fab
# IL-12 (R&D) = biological target: T3, IL-12 (R&D); test: ELISA, antigen in solution to immobilized Fab
# [3] = biological target: T1, recombinant human IL-23 (hrIL-23), …; test: IL-23/IL-23R competition assay
Binder,"Inhibition of IL-17 production, IC50 [1] [µg/mL]",also measured
"mAb MOR05028 (antibody, IgG1, V domains shown) VH: QVELVQSGAEVKKPGSSVKVSCKASGGTFSNYAISWVRQAPGQGLEWMGGIIPFGYAQKFQGRVTITADESTSTAYMELSSLRSEDTAVYYCARDIYAGMDVWGQGTLVTVSS VL: not shown",0.104,
"mAb MOR05039 (antibody, IgG1, V domains shown) VH: QVELVESGGGLVQPGGSLRLSCAASGFTFSSFGMSWVRQAPGKGLEWVSNITYYASVKGRFTISRDNSKNTLYLQMNSLRAEDTAVYYCARYWGTPYLMQFDNWGQGTLVTVSS VL: DIALTQPASVSGSPGQSITISCTGTSSDVGGYNSVSWYQQHPGKAPKLMIYSVSSRPSGVSNRFSGSKSGNTASLTISGLQAEDEADYYCSSYDTNKPLVVFGGGTKLTVL",0.161,
"mAb MOR05036 (antibody, IgG1, V domains shown) VH: QVELVQSGAEVKKPGSSVKVSCKASGGTFSSNYISWVRQAPGQGLEWMGIPFGAYAQKFQGRVTITADESTSTAYMELSSLRSEDTAVYYCARSKKGMYGGWTYPLMMFDLWGQGTLVTVSS VL: not shown",0.17,
"mAb MOR05032 (antibody, IgG1, V domains shown) VH: QVELVQSGAEVKKPGSSVKVSCKASGGTFSSNYISWVRQAPGQGLEWMGGIIPIFGHANYAQKFQGRVTITADESTSTAYMELSSLRSEDTAVYYCARSKKGMYGGWTYPLMMFDLWGQGTLVTVSS VL: DIVLTQSPATLSLSPGERATLSCRASQSVSSNYLAWYQQKPGQAPRLLIYYASRRATGVPARFSGSGSGTDFTLTISSLEPEDFAYYCQQNPFTFGQGTKVEIK",0.172,
"mAb MOR05034 (antibody, IgG1, V domains shown) VH: QVELVQSGAEVKKPGSSVKVSCKASGGTFSSNYISWVRQAPGQGLEWMGIPFGAYAQKFQGRVTITADESTSTAYMELSSLRSEDTAVYYCARSKKGMYGGWTYPLMMFDLWGQGTLVTVSS VL: not shown",0.185,
"mAb MOR05063 (antibody, IgG1, V domains shown) VH: QVELVESGGGLVQPGGSLRLSCAASGFTFSSFGMSWVRQAPGKGLEWVSNISSSGSSTYYADSVKGRFTISRDNSKNTLYLQMNSLRAEDTAVYYCARYWGTPYLMQFDNWGQGTLVTVSS VL: DIALTQPASVSGSPGQSITISCTGTSSDVGGYNSVSWYQQHPGKAPKLMIYSVSSRPSGVSNRFSGSKSGNTASLTISGLQAEDEADYYCSDVFGGGTKLTVL",0.198,
"mAb MOR05062 (antibody, IgG1, V domains shown) VH: QVELVESGGGLVQPGGSLRLSCAASGFTFSSFGMSWVRQAPGKGLEWVSNISSSGSSTYYADSVKGRFTISRDNSKNTLYLQMNSLRAEDTAVYYCARYWGTPYLMQFDNWGQGTLVTVSS VL: DIALTQPASVSGSPGQSITISCTGTSSDVGGYNSVSWYQQHPGKAPKLMIYSVSSRPSGVSNRFSGSKSGNTASLTISGLQAEDEADYYCYVFGGGTKLTVL",0.199,
"mAb MOR05031 (antibody, IgG1, V domains shown) VH: QVELVQSGAEVKKPGSSVKVSCKASGGTFSSNYISWVRQAPGQGLEWMGGIIPIFGHANYAQKFQGRVTITADESTSTAYMELSSLRSEDTAVYYCARSKKGMYGGWTYPLMMFDLWGQGTLVTVSS VL: DIVLTQSPATLSLSPGERATLSCRASQSVSSNYLAWYQQKPGQAPRLLIYYASRRATGVPARFSGSGSGTDFTLTISSLEPEDFAYYCQQTPFTFGQGTKVEIK",0.215,
"mAb MOR05033 (antibody, IgG1, V domains shown) VH: QVELVQSGAEVKKPGSSVKVSCKASGGTFSSNYISWVRQAPGQGLEWMGIIPGAYAQKFQGRVTITADESTSTAYMELSSLRSEDTAVYYCARSKKGMYGGWTYPLMMFDLWGQGTLVTVSS VL: not shown",0.283,
"mAb MOR05061 (antibody, IgG1, V domains shown) VH: QVELVESGGGLVQPGGSLRLSCAASGFTFSSFGMSWVRQAPGKGLEWVSNISSSGSSTYYADSVKGRFTISRDNSKNTLYLQMNSLRAEDTAVYYCARYWGTPYLMQFDNWGQGTLVTVSS VL: DIALTQPASVSGSPGQSITISCTGTSSDVGGYNSVSWYQQHPGKAPKLMIYSVSSRPSGVSNRFSGSKSGNTASLTISGLQAEDEADYYCSSYVFGGGTKLTVL",0.309,
"mAb MOR05037 (antibody, IgG1, V domains shown) VH: QVELVQSGAEVKKPGSSVKVSCKASGGTFSSNYISWVRQAPGQGLEWMGIPFGAYAQKFQGRVTITADESTSTAYMELSSLRSEDTAVYYCARSKKGMYGGWTYPLMMFDLWGQGTLVTVSS VL: not shown",0.336,
"Fab MOR04649 (Fab, V domains shown, HuCAL Gold Fab, lambda) VH: QVQLVQSGAEVKKPGESLKISCKGSGYSFSNYWIGWVRQMPGKGLEWMGIIDPSNSYTNYSPSFQGQVTISADKSISTAYLQWSSLKASDTAMYYCARWYYKPFDVWGQGTLVTVSS VL: DIVLTQPPSVSGAPGQRVTISCTGSSSNIGSGYDVHWYQQLPGTAPKLLIYGNSKRPSGVPDRFSGSKSGTSASLAITGLQSEDEADYYCSSWTPSSVVFGGGTKLTVL",,binding result [2]: no binding; binding result (IL-12 (R&D)): no binding
"Fab MOR05046 (Fab, V domains shown, H-CDR2 matured from 4649) VH: QVQLVQSGAEVKKPGESLKISCKGSGYSFSNYWIGWVRQMPGKGLEWMGIIDPVSSWTKYSPSFQGQVTISADKSISTAYLQWSSLKASDTAMYYCARWYYKPFDVWGQGTLVTVSS VL: DIVLTQPPSVSGAPGQRVTISCTGSSSNIGSGYDVHWYQQLPGTAPKLLIYGNSKRPSGVPDRFSGSKSGTSASLAITGLQSEDEADYYCSSWTPSSVVFGGGTKLTVL",,IC50 [3]: 0.03 nM
"Fab MOR04658 (Fab, V domains shown, HuCAL Gold Fab, lambda) VH: QVQLVESGGGLVQPGGSLRLSCAASGFTFSSFGMSWVRQAPGKGLEWVSNISSSGSSTYYADSVKGRFTISRDNSKNTLYLQMNSLRAEDTAVYYCARYWGTPYLMQFDNWGQGTLVTVSS VL: DIALTQPASVSGSPGQSITISCTGTSSDVGGYNSVSWYQQHPGKAPKLMIYSVSSRPSGVSNRFSGSKSGNTASLTISGLQAEDEADYYCSSYDTNKPLVVFGGGTKLTVL",,binding result [2]: no binding; binding result (IL-12 (R&D)): no binding
